In patent US20190017096A1 one finds band intensity of biotinylated Rab6a (FIG. 3) compared to biotinylated Rab27a (FIG. 2), positive controls spiked with fish REP1, biotinylated substrate with Rab6a compared to Rab27a (in vitro prenylation, WB; untransduced 293 lysate, endogenous REP1, FIG. 9) and strength of the WB signal for biotinylated Rab6a (FIG. 3) compared to biotinylated Rab27a (FIG. 2), AAV-REP1 transduced cells data, which are given here for two substances.

For the experiment, the target named is Rab6a (Ras-related protein Rab-6A) (Homo sapiens (Human)) (UniProt P20340). Description: cell-based or functional assay.
Sequence of UniProt P20340 (P20340 whole entry): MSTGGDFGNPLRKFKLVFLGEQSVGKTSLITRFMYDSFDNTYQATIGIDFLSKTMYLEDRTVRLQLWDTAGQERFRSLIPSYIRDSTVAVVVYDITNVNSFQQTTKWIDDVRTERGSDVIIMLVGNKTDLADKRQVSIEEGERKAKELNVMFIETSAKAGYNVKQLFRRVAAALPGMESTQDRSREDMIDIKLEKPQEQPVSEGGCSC

As to fish REP1, the band intensity of biotinylated Rab6a (FIG. 3) compared to biotinylated Rab27a (FIG. 2), positive controls spiked with fish REP1 turned out to be 100 fold.

“human Rab escort protein 1 (REP1) (from UniProt P24386 1-653)” registered a biotinylated substrate with Rab6a compared to Rab27a (in vitro prenylation, WB; untransduced 293 lysate, endogenous REP1, FIG. 9) of 2.5 fold and a strength of the WB signal for biotinylated Rab6a (FIG. 3) compared to biotinylated Rab27a (FIG. 2), AAV-REP1 transduced cells of 10 fold.
